Substitutions are numbered along the chain they refer to.
T1: human pancreatic α-amylase (human, UniProt P04746)
T1 sequence: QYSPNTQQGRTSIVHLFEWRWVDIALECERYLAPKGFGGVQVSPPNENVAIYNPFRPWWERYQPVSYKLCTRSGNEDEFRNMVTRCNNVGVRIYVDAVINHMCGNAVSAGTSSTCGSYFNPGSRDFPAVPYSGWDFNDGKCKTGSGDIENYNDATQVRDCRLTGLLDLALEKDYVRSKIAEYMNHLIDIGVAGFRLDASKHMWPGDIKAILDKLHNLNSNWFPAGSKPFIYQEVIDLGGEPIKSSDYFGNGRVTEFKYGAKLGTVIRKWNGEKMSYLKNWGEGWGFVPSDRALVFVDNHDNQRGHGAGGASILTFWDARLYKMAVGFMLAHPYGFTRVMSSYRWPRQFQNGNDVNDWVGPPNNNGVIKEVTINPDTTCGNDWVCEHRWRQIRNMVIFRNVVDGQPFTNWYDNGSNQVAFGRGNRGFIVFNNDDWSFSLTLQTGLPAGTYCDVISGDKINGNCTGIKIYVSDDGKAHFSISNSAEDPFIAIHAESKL

B1: Protein 0.26 AI (other)
chain: SGPWMCYPGYAFKVPALPGCRPVLKLQCNGSQVPEAVLRDCCQQLADISEWCRCGALYSMLDSMYKEHGVQEGQAGTGAFPSCRREVVKLTAASITAVCKLPIVIDASGDGAYVCKGVAAYPDA
B2: Protein 0.53 AI (other)
chain: B1 chain with Y10Q, K13Q, V23L, C52P, Q71S, K100R, I105V, G117D
B3: Protein 0.19 AI (other)
chain: SGPWMCYPGQAFQVPALPACRPLLRLQCNGSQVPEAVLRDCCQQLAHISEWCRCGALYSMLDSMYKEHGAQEGQAGTGAFPRCRREVVKLTAASITAVCRLPIVVDASGDGAYVCKDVAAYPDA
B4: Protein 0.28 AI (other)
chain: SGPWSWCNPATGYKVSALTGCRAMVKLQCVGSQVPEAVLRDCCQQLADINNEWCRCGDLSSMLRAVYQELGVREGKEVLPGCRKEVMKLTAASVPEVCKVPIPNPSGDRAGVCYGDWCAYPDV
B5: Protein (A) (other)
chain: SGPWMCYPGYAFKVPALPGCRPVLKLQCNGSQVPEAVLRDCCQQLADISEWCRCGALYSMLDSMYKEHGVQEGQAGTGAFPSCRREVVKLTAASITAVCKLPIVIDASGDGAYVCKGVAAYP

Molecular target: T1, human pancreatic α-amylase
Assay: cell-based or functional assay

Row | Binder | Amylase inhibitory activity (U/mg)
1 | B1 | 26100 U/mg
2 | B2 | 3940 U/mg
3 | B3 | 20300 U/mg
4 | B4 | 840 U/mg
5 | B5 | 20500 U/mg

Reference: patent US5726291, “Amylase inhibitors” (Nisshin Flour Milling Co., Ltd., dated 1998)
